Data on 30 molecules can be found in patent publication US20240002498A1 (TENEOBIO, published 2024).

For orientation: EC50 means the concentration at which the effect is half-maximal. A low value points to greater potency. For orientation: Kd means the concentration at which binding is half-saturated.

Positions count from the first letter of the chain named.

The target of assay [1] is T1, human Folate Receptor Alpha (FOLR1) on cells (human, UniProt P15328 25-234).
T1 construct: whole, on cells; Endogenous on IGROV-1, OVCAR-3, SKOV-3, HT-29 cells; transfected on CHO cells; the cell is named under assay; also called FRα; FRa
Kind of assay: flow cytometry, IGROV-1 cells. For orientation: In flow cytometry, cells or beads pass a laser one at a time.

The target of assay [2] is T2, CHO_huFOLR2 (human, UniProt P14207).
T2 construct: stably expressed on CHO cells; also called human FOLR2 on CHO cells; folate receptor beta
Description: flow cytometry on CHO cells stably expressing human FOLR2, MFI fold over background. The procedure:
Anti-FOLR1 HCAb binding to CHO cells stably expressing human FOLR2 (also known as folate receptor beta, FRβ), and CHO cells stably expressing human IZUMO1R (also known as folate receptor delta, FOLR4, FRδ, JUNO) was analyzed for a number of different clones. Data are presented in FIG. 2, panels A-B, as MFI fold over background. Insets show binding of positive control anti-FOLR2 and anti-IZUMO1R antibodies, respectively, in dark grey, compared to the respective isotype control in light grey.

Assay [3] addresses T1, human Folate Receptor Alpha (FOLR1) on …. Kind of assay: flow cytometry, CHO cells stably expressing human FOLR1.
Assay [4] concerns the target T3, cyno FOLR1 on CHO cells (cyno (Cynomolgus macaque), UniProt A0A2K5U044 25-234).
T3 construct: whole, on cells; also called cyFOLR1
Kind of assay: flow cytometry, CHO cells stably expressing cyno FOLR1.

The target of assay [5] is T3, cyno FOLR1 on CHO cells. Description: cell binding, CHO cells stably expressing cyno FOLR1.
Assay [6] has as its target T1, human Folate Receptor Alpha (FOLR1) on …. Description: cell binding, IGROV-1 cells.
Assay [7] deals with recombinant human FOLR1 (human, UniProt P15328 25-234). Description: BLI, Octet QK-384, recombinant human FOLR1. The procedure: As used herein, the “Kd” or “Kd value” refers to a dissociation constant determined by BioLayer Interferometry, using an Octet QK384 instrument (Fortebio Inc., Menlo Park, CA) in kinetics mode. For example, anti-mouse Fc sensors are loaded with mouse-Fc fused antigen and then dipped into antibody-containing wells to measure concentration dependent association rates (kon). Antibody dissociation rates (koff) are measured in the final step, where the sensors are dipped into wells containing buffer only. The Kd is the ratio of koff/kon. (For further details see, Concepcion, J, et al., Comb Chem High Throughput Screen, 12 (8), 791-800, 2009).
Table 17 summarizes affinity and epitope bin information for anti-FOLR1 heavy chain antibodies (HCAbs). Column 1 indicates the clone ID of the HCAb. Column 2 indicates the affinity of the HCAb to recombinant human FOLR1 as measured by Bio-layer interferometry (BLI) using an Octet QK-384. Column 3 indicates the epitope bin of HCAb as determined by a competition BLI binding experiment using an Octet QK-384.
In general terms: BLI is a label-free optical method that tracks binding on a fibre tip over time.

For assay [8], the target named is T1, human Folate Receptor Alpha (FOLR1) on …. Description: cell binding, CHO cells stably expressing human FOLR1.

T1 sequence (P15328 25-234): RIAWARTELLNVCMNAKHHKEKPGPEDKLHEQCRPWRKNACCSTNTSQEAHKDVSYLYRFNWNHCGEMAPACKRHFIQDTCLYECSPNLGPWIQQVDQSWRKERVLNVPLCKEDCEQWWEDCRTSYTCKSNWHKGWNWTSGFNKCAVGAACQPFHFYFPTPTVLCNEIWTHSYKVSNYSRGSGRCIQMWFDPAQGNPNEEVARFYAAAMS
T3 sequence (A0A2K5U044 entry or part of it): as the sequence (P15328 25-234) above, with I2T, W4R, R37K, A146P, H171Y counted along it
Sequence of recombinant human FOLR1 (P15328 25-234 limits assumed): as the sequence (P15328 25-234) above
T2 sequence (P14207 17-230 limits assumed): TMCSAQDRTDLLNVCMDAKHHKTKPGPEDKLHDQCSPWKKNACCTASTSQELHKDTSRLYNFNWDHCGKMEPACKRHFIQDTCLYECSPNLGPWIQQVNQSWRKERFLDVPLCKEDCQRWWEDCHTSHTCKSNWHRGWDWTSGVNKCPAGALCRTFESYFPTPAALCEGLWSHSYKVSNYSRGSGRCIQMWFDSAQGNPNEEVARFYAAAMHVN

B1: anti-FOLR1 heavy chain antibody (HCAb, UniAb) clone ID 352365 (antibody, V domains shown)
VH: EVQLVESGGGLVQPGGSLRLSCAASGFSFSSYSMKWVRQAPGKGLEWVSYISSSSSTIEYADSVKGRFTISRDNAKNSLYLQMNSLRDEDTAVYYCATVGLDFDYRGQGTLVTVSS
notes: Heavy chain-only antibody (no light chain), F18 family
In the case of B1, the figures for the “fold over background MFI” value in assay [1], in assay [3] and in assay [4] were 594 fold over background, 906 fold over background and 97.4 fold over background, respectively. For the same molecule, in assay [2], the binding result is on record as “no binding (tested: 100 nM)”. For the same molecule, the figures for the EC50 in assay [5], in assay [6] and in assay [8] were 3.3 nM, 4.6 nM and 3.8 nM, respectively. Besides, the Kd in assay [7] came out at 125 nM.

B2: anti-FOLR1 heavy chain antibody (HCAb, UniAb) clone ID 358655 (antibody, V domains shown)
VH: B1 VH with S28T, V48I, S53G, S56D, S85G, T98S
notes: as for B1
As for B2, the “fold over background MFI” value in assay [3] was determined as 926 fold over background; in assay [4] it was 590 fold over background.

B3: anti-FOLR1 heavy chain antibody (HCAb, UniAb) clone ID 358624 (antibody, V domains shown)
VH: B1 VH with S56D, E89D, T98S
notes: as for B1
Take B3: the results for the “fold over background MFI” value in assay [3] and in assay [4] were 1670 fold over background and 933 fold over background, respectively.

B4: anti-FOLR1 heavy chain antibody (HCAb, UniAb) clone ID 358676 (antibody, V domains shown)
VH: B1 VH with S56D, D88A, T98S
notes: as for B1
Take B4: the “fold over background MFI” value in assay [3] amounted to 980 fold over background; in assay [4] it was 717 fold over background.

B5: anti-FOLR1 heavy chain antibody (HCAb, UniAb) clone ID 358664 (antibody, V domains shown)
VH: B1 VH with E46D, S56D, T98S
notes: as for B1
As for B5, the “fold over background MFI” value in assay [3] stood at 1470 fold over background; in assay [4], 729 fold over background.

B6: anti-FOLR1 heavy chain antibody (HCAb, UniAb) clone ID 358626 (antibody, V domains shown)
VH: B1 VH with Q13K, S56D, E89D, T98S
notes: as for B1
In the case of B6, the “fold over background MFI” value was found to be 1710 fold over background in assay [3] and 1060 fold over background in assay [4].

B7: anti-FOLR1 heavy chain antibody (HCAb, UniAb) clone ID 358656 (antibody, V domains shown)
VH: B1 VH with K35N, S56D, T98S
notes: as for B1
Take B7: the “fold over background MFI” value in assay [3] was 1410 fold over background; in assay [4], 21.7 fold over background.

B8: anti-FOLR1 heavy chain antibody (HCAb, UniAb) clone ID 358590 (antibody, V domains shown)
VH: B1 VH with S28T, K35N, S56D, T98S
notes: as for B1
As to B8, the “fold over background MFI” value turned out to be 1570 fold over background in assay [3] and 21.8 fold over background in assay [4].

B9: anti-FOLR1 heavy chain antibody (HCAb, UniAb) clone ID 358608 (antibody, V domains shown)
VH: B1 VH with V48I, S53G, S56D, T98S
notes: as for B1
Turning to B9, the “fold over background MFI” value in assay [3] came to 1280 fold over background; in assay [4], 535 fold over background.

B10: anti-FOLR1 heavy chain antibody (HCAb, UniAb) clone ID 358596 (antibody, V domains shown)
VH: B1 VH with S28T, S52D, T57I, T98S
notes: as for B1
For B10, the figures for the “fold over background MFI” value in assay [3] and in assay [4] were 1960 fold over background and 1340 fold over background, respectively.

B11: anti-FOLR1 heavy chain antibody (HCAb, UniAb) clone ID 358647 (antibody, V domains shown)
VH: B1 VH with K35N, V48I, S53G, S56D, D88A, T98S
notes: as for B1
Turning to B11, the “fold over background MFI” value was 920 fold over background in assay [3] and 3 fold over background in assay [4].

B12: anti-FOLR1 heavy chain antibody (HCAb, UniAb) clone ID 358393 (antibody, V domains shown)
VH: EVQLVESGGGLVQPGGSLRLSCAASGFTFSSYSMNWARQAPGKGLEWVSYISSSSSSIYYADSVKGRFTISRDNAKNSLYLQMNSLRAEDTAVYYCARDVTSGIAAAGSAFNIRGQGTLVTVSS
notes: Heavy chain-only antibody (no light chain), F14 family
Regarding B12, the entries for the “fold over background MFI” value in assay [3] and in assay [4] were 402 fold over background and 1.2 fold over background, respectively.

B13: anti-FOLR1 heavy chain antibody (HCAb, UniAb) clone ID 358442 (antibody, V domains shown)
VH: B12 VH with Q13K, A37V, S57Y
notes: as for B12
With B13, the “fold over background MFI” value amounted to 1600 fold over background in assay [3] and 1.2 fold over background in assay [4].

B14: anti-FOLR1 heavy chain antibody (HCAb, UniAb) clone ID 358452 (antibody, V domains shown)
VH: B12 VH with A37V, S49A, Y50S, S54G, S57D
notes: as for B12
For the molecule B14, the entries for the “fold over background MFI” value in assay [3] and in assay [4] were 1840 fold over background and 1.7 fold over background, respectively.

B15: anti-FOLR1 heavy chain antibody (HCAb, UniAb) clone ID 358464 (antibody, V domains shown)
VH: B12 VH with A37V, S57T
notes: as for B12
Take B15: the “fold over background MFI” value in assay [3] stood at 2100 fold over background; in assay [4] it was 6.4 fold over background.

B16: anti-FOLR1 heavy chain antibody (HCAb, UniAb) clone ID 358397 (antibody, V domains shown)
VH: B12 VH with Q13K, G15R, A23E, A37V, Y50S, S54G, S57Y
notes: as for B12
Turning to B16, the “fold over background MFI” value was 277 fold over background in assay [3] and 331 fold over background in assay [4].

B17: anti-FOLR1 heavy chain antibody (HCAb, UniAb) clone ID 358399 (antibody, V domains shown)
VH: B12 VH with Q13K, A23V, A37V, Y50S, S57Y
notes: as for B12
Turning to B17, the “fold over background MFI” value in assay [3] was 2010 fold over background; in assay [4], 330 fold over background.

B18: anti-FOLR1 heavy chain antibody (HCAb, UniAb) clone ID 358418 (antibody, V domains shown)
VH: B12 VH with A37V, Y50S, S54G, S57Y, V93L
notes: as for B12
For the molecule B18, the “fold over background MFI” value came to 1500 fold over background in assay [3] and 2080 fold over background in assay [4].

B19: anti-FOLR1 heavy chain antibody (HCAb, UniAb) clone ID 358466 (antibody, V domains shown)
VH: B12 VH with V12I, A37V, Y50S, S54G, S57Y
notes: as for B12
B19: the “fold over background MFI” value in assay [3] is 1600 fold over background; in assay [4], 2090 fold over background.

B20: anti-FOLR1 heavy chain antibody (HCAb, UniAb) clone ID 358478 (antibody, V domains shown)
VH: B12 VH with V12I, T28I, A37V, S57Y
notes: as for B12
Consider B20, for which the “fold over background MFI” value in assay [3] was 427 fold over background; in assay [4] it was 1.1 fold over background.

B21: anti-FOLR1 heavy chain antibody (HCAb, UniAb) clone ID 358480 (antibody, V domains shown)
VH: B12 VH with Q13K, A37V, Y50S, S54G, S56T, S57Y
notes: as for B12
In the case of B21, the entries for the “fold over background MFI” value in assay [3] and in assay [4] were 2140 fold over background and 1200 fold over background, respectively.

B22: anti-FOLR1 heavy chain antibody (HCAb, UniAb) clone ID 358413 (antibody, V domains shown)
VH: B12 VH with T28S, A37V, Y50S, S57Y, A75S, S78T
notes: as for B12
For B22, the “fold over background MFI” value in assay [3] turned out to be 1810 fold over background; in assay [4] it was 497 fold over background.

B23: anti-FOLR1 heavy chain antibody (HCAb, UniAb) clone ID 358396 (antibody, V domains shown)
VH: B12 VH with Q13K, A37V, Y50S, S57Y, Y95F
notes: as for B12
Turning to B23, the “fold over background MFI” value stood at 1730 fold over background in assay [3] and 360 fold over background in assay [4].

B24: anti-FOLR1 heavy chain antibody (HCAb, UniAb) clone ID 358420 (antibody, V domains shown)
VH: B12 VH with Q13K, A37V, Y50S, S54G, S57Y, K76N, Y95F
notes: as for B12
Regarding B24, the “fold over background MFI” value was 1760 fold over background in assay [3] and 2260 fold over background in assay [4].

B25: anti-FOLR1 heavy chain antibody (HCAb, UniAb) clone ID 358446 (antibody, V domains shown)
VH: B12 VH with Q13K, T28I, A37V, Y50S, S54G, S57Y, N74D, Y95F
notes: as for B12
Turning to B25, the “fold over background MFI” value in assay [3] was 1270 fold over background; in assay [4], 1.5 fold over background.

B26: anti-FOLR1 heavy chain antibody (HCAb, UniAb) clone ID 358468 (antibody, V domains shown)
VH: B12 VH with Q13K, A37V, Y50S, S57Y
notes: as for B12
With B26, the “fold over background MFI” value in assay [3] was determined as 1670 fold over background; in assay [4] it was 314 fold over background.

B27: anti-FOLR1 heavy chain antibody (HCAb, UniAb) clone ID 358456 (antibody, V domains shown)
VH: B12 VH with Q13K, T28I, A37V, Y50S, S54G, S57Y, Y95F
notes: as for B12
For the molecule B27, the “fold over background MFI” value in assay [3] was 1870 fold over background; in assay [4] it was 2090 fold over background.

B28: anti-FOLR1 heavy chain antibody (HCAb, UniAb) clone ID 358441 (antibody, V domains shown)
VH: B12 VH with T28S, A37V, Y50S, S54G, S57Y, A88G
notes: as for B12
Take B28: the “fold over background MFI” value in assay [3] was 1900 fold over background; in assay [4], 2300 fold over background.

B29: anti-FOLR1 heavy chain antibody (HCAb, UniAb) clone ID 358416 (antibody, V domains shown)
VH: B12 VH with Q13K, S33T, A37V, Y50S, S54G, S57Y
notes: as for B12
With B29, the entries for the “fold over background MFI” value in assay [3] and in assay [4] were 1870 fold over background and 1820 fold over background, respectively.

B30: anti-FOLR1 heavy chain antibody (HCAb, UniAb) clone ID 358462 (antibody, V domains shown)
VH: B12 VH with A37V, Y50S, S54G, S57Y
notes: as for B12
For the molecule B30, the “fold over background MFI” value in assay [3] was determined as 2150 fold over background; in assay [4], 2580 fold over background.
